Test results taken from paper doi:10.1101/2024.12.26.630402 (bioRxiv, 2024).

Biological target: the molecule itself
Assay: cryo-EM structure

B1: large glutamate dehydrogenase of 180 kDa subunits from Mycobacterium smegmatis (mL-GDH180) (enzyme)
chain: MIRRLSVAFLSTYRGPQADAPGVTSTGPLAVAAHDDLVSDDLVAAHYRLASMRAPGETKAAVYPGDAGSGAALQIVTDQAPMLVDSVTVLLHRHGIAYTAIMNPVFRVRRGLDGELLDVRPAAEAAPGDGADECWILVPITAAADGEALTEATRLVPGILAEARQIGLDSGAMIAALHGLANDLATDLEGHFPNAERKEVAALLRWLADGHFVLLGYQQCVVGDGNAEVDPASRLGVLRLRNDVLPPLTDSDDLLVLAQATMPSYLRYGAYPYIVVVRESPGASRVIEHRFVGLFTVAAMNANALEIPLISRRVEEALAMAHRDPSHPGQLLRDIIQTIPRPELFALSSKQLLEMALAVVDLGSRRRTLLFLRADHLAHFVSCLVYLPRDRYTTAVRLEMQDILVRELGGAGIDYSARVSESPWAVVHFTVRLPEGTAADSVDTSLENESRIQDLLTEATRNWGDRMISAAAAASISPAALEHYAHAFPEDYKQAFAPQDAIADISLIEALQDDSVKLVLADTAEDRVWKLTWYLGGHSASLSELLPMLQSMGVVVLEERPFTLRRTDGLPVWIYQFKISPHPSIPHAPDAEAQRDTAQRFADAVTAIWHGRVEIDRFNELVMRAGLTWQQVVVLRAYAKYLRQAGFPYSQSHIESVLNENPHTTRSLIDLFEALFDPSQETDGRRDAQGAAAAVAADIDALVSLDTDRVLRAFANLIEATLRTNYFVARPDSARARNVLAFKLNPLVIKELPLPRPKFEIFVYSPRVEGVHLRFGFVARGGLRWSDRREDFRTEILGLVKAQAVKNAVIVPVGAKGGFVVKRPPTLTGDAAADREATRAEGVECYRLFISGLLDVTDNVDKATGAVVTPPEVVRRDGEDAYLVVAADKGTATFSDIANEVAKSYGFWLGDAFASGGSIGYDHKAMGITAKGAWESVKRHFREMGVDTQTQDFTVVGIGDMSGDVFGNGMLLSKHIRLVAAFDHRDIFLDPNPDAGRSWDERKRLFDLPRSSWADYDKSLISEGGGVYSRQQKSIPISPQVRTALGLDADVEELTPPALIKAILKAPVDLLWNGGIGTYIKAETEADADVGDRANDQIRVCGNQVRAKVIGEGGNLGVTALGRIEFDLAGGRINTDALDNSAGVDCSDHEVNIKILIDSAVTAGKVTPEERTELLLSMTDEVGELVLADNRDQNDLMGTSRANAASLLSVHARMIKDLVDNRGLNRELEALPSEKEIRRRADAGIGLTSPELATLMAHVKLALKDDVLASDLPDQEVFASRLPYYFPTRLREELHGEIRSHQLRREIITTMLVNDLVDTAGISYAYRITEDVGVGPVDAVRSYVAINAIFGIGDVWRRIRAAGDAGVPTSVTDRMTLDLRRLVDRAGRWLLNYRPQPLAVGAEINRFGAKVAALTPRMSEWLRGDDKAIVSKEAGDFASHGVPEDLAYHIATGLYQYSLLDVIDIADIVDREPDEVADTYFALMDHLGADALLTAVSRLSRDDRWHSLARLAIRDDIYGSLRALCFDVLAVGEPDENGEEKIAEWETTNSSRVTRARRTLTEIYKDGEQDLATLSVAARQIRSMTRTSGTGTTG
stoichiometry N: 4
